Source: the DeepSol protein solubility set

Experiment: soluble on expression in E. coli; label from the status in PepcDB or PDB records

| Sequence | soluble on expression in E. coli |
| --- | --- |
| MSSKPKYVQDQEMIPGVYWVGIVDWMVRIFHGYHTDEGSSYNSYFIDDECPTVIDSVKYPFAEEWLSRIAACCPLDKIKYVVMNHAEGDHASSLKDHYHKFTNATFVCTKKCQEHLKILYGMEKATWLIVDDKYTLKIGKRTLKFIPVPLLHWPDSTFTYCPEDKILFSNDGFGQHYATSRRWADECDVSHVMHLFKEYTANILGLFSAQMRKALEVASTVEIKYILSAHGVSWRGDAMGLAIAEYDRWSKGQHCQKKVTVVLDSMYGTTHRMALALLDGARSTGCETVLLEMTSSDITKVALHTYDSGAVAFASPTLNNTMMPSVAAALNYVRGLTLIKGKPAFAFGAFGWSNRAVPDIVAELRDGCKADVYDEKGITFKFNYTEELLEQAYNAGVDLGKRAIAYCEKNAPKQ | soluble |
| MSSPSFPRVLIFDSGVGGLSVYREIEARLPQLNYIYLFDNAAYPYGELTQETLIARVDTLVTRMVEQERIDLVVIACNTASTIVLPVLRAKLTIPVVGVVPAIKPASLIASKAIGLIATPATVKRQYTQELIRDFSANKNVELLGSTRLVNMAEEKLRGKPLDLEELASILQPLKNTIDVAVLGCTHFPLIKEEIQQVLGEQVQLIDSGLAIARRVQELLGIEQAVGAKQKHRIYASAPPWEESALNIKLEQLGFNPVQPFLHPI | not soluble |
| MSSRIRINTKSLLVQPGYSGSKMRDRLFFLLSKYGIRPRDSIGQHFLIIEDVIEKAIETANVNENDVILEVGPGLGFLTDELAKRAKKVYTIEIDQKIIEILKKEYSWNNVKIIQGDAVRVEWPKFNKVVSNIPYKISSPFTFKLLKTDFERAVVMYQLEFALRMVAKPGSRNYSRLSLMAQALGNVEIVMKIGKGAFYPRPKVDSALVLIEPRKDKIVLNENLVKALFQHRRKTVPRALKDSIHMLGVSKDEIRGIINNVPHSNKRVFQLYPEEVKDIEEYLKKHGIIS | soluble |
| MSSSGNGRSNNDRADQLRREEQERKDRELAERLQREQSDDTPPAVARRGRNRAAARERASPYSRSRIRSTAGTSDAGPSSSSSVRGRGTRGTTSARRGRGSARGGEATMNRTRANQQISESPNRRRSTRQTRNPNPQMQFEGDRVQVRQGDEIRDITAETYFPDDDDDSDYTQSDNEEEEERNATITISSSESDADSEAESDHEERDMPRAFNPRGSYARSGRGPGGRGRVITPGRYRGSGQHNISADYIRDLLHSRIYPDNPRRDPLYRSGLNNEDESDPENVDADSDDDEAQSNGSSVIDLSDDDDVLIIGGRGAVHADRNHIRQPIFDEDRVMYNHELELYHDEEEYIVPAAKPVSAGGKLVEPDSTWGDCTMCSNPPIKPQGCKKCLQFLGCTDCVRRWYAARKGSMEGSSCPLCRAPWTGRAGVLMMTTIQKNVKKAGITSANTSSDSSLPSTSSLPNN | not soluble |
| MSSSSGNQNSKEHKVAVTHDLGKTNVPEHPKRVVVLELGFIDTLLDLGITPVGVADDNKAKQLINKDVLKKIDGYTSVGTRSQPSMEKIASLKPDLIIADTTRHKKVYDQLKKIAPTIALNNLNADYQDTIDASLTIAKAVGKEKEMEKKLTAHEEKLSETKQKISANSQSVLLIGNTNDTIMARDENFFTSRLLTQVGYRYAISTSGNSDSSNGGDSVNMKMTLEQLLKTDPDVIILMTGKTDDLDADGKRPIEKNVLWKKLKAVKNGHVYHVDRAVWSLRRSVDGANAILDELQKEMPAAKKLEHHHHHH | not soluble |
| MSSSSPGEPLEPTDQDLDVLLKNLGNLVTPMALRVAATLRLVDHLLAGADTLAGLADRTDTHPQALSRLVRHLTVVGVLEGGEKQGRPLRPTRLGMLLADGHPAQQRAWLDLNGAVSHADLAFTGLLDVVRTGRPAYAGRYGRPFWEDLSADVALADSFDALMSCDEDLAYEAPADAYDWSAVRHVLDVGGGNGGMLAAIALRAPHLRGTLVELAGPAERARRRFADAGLADRVTVAEGDFFKPLPVTADVVLLSFVLLNWSDEDALTILRGCVRALEPGGRLLVLDRADVEGDGADRFFSTLLDLRMLTFMGGRVRTRDEVVDLAGSAGLALASERTSGSTTLPFDFSILEFTAVSEEAAPAAQASEALPAQE | soluble |
| MSTAEQRMDTSEVELPNDNVNEQGNKTPRADQPESSASGARNHGEDEEVTEQVELAAMETEASDSIVDNVPKTPRRAGRPKKLPSTSTAAAESAVTPGKRGRKRKGSESVNTTINSTMNSTLNEPKTPGRKQAKLVAPLLTYDLFAPSIIGDRVLSCGEGEALGHPGRTTTKKPRKVDIFEEEGLKPLQAVAGGVHSAVLTSEGEVYMCGINEKGTVPAEGVEKEGSTDEFAKVKFEEDIEKEGKIVMLAAGASFTAALTDQGSVIAWGNLRNSNGNVDVHPLLHKMQEAPVVIVHQAKRKIVKIAAGENHLVMLDEKGCLLTFGDGEMGQLGRSSRTKTIRSKYMCDESGDHLLVPLRFKHKGKFFDVVAKNVFASGFWTIVHGEDGKYYAFGLNNYAQLGIKVDEADVGQDGQDNRELRVFLPAEAPAFGAERTFVNIEGVQHVVILGSDGKVFAMGKNTDNALGLGNWTGKDDQQHWLYDTIQEIEFDSKIVGVSAKLATSIAWSEDGTAYAWGFDTTGQLGLGLKDEDEKMVSKPEEISSAHLDGYSIIGASISDQHTLIIAKKN | soluble |
| MSTDSQNPVRKSCAQPHSCSQEVRLKAMSRSPLTKGLNQLEHLELDKSLTAWSWAEDDPLYLAGENLNGSYLIVAGRVRVSRDTIDGKELTVDIATPGDVIGAIDTEPQPAVDSAWAIETTCALFLPATALATVIEQHPSFALAMIRMQQQRLATARDHEINLTTTTVEQRVAIAVRTLGRKIGQRRPDGILLIQVRIRREDVAGLAGTTVESTSRVLARLRKEGVIDSGREWIAVVDERQLDAIIGEDF | not soluble |
| MSTETDSILAAFEKFNTIIIHRHINPDPDAIGSQTGLALLLRAAYPAKTIYTAGPAAPDLAWIGPQQQVSAEAYTGALVVVIDTSNRERIAGDHFDQGAMLIKIDHHLDEDQLGTINWVDTHASSASEMVWDLVRHSPQLQLTKAAATALYAGIIGDTGRFLYDLTTARTHQAAADLLATGIDAAAIGRQEDQFPENVGRLIGWALENVKITDTGAGSLLITKAVLAQFGLAYGEEQRAVGNIGKLASIDRWVVFTERTDGSYRVELRGKTKEINTLAVQHGGGGHPLASGAVADNAAELHAIEEELASLLEHHHHHH | soluble |
| MSTQTVTIKSLGAQGDGIAHCPDGPVYVPFALPGETVAIAKVKDQGTVMSITEASADRRDPVCRHFGPEGINGTCGGCSLQHLADQPYHAFKRELVVSALRSKGLTPPVDDLVICRPGERRRAVFAARKTEKGLLLGFSQANSHHIVAIEECPVTSPGIVSRFDAIRAIGLSMVANAEPFRITVLETLSGLDISVEGIKSVNDKQRRTLTETVLAMRGIARVSLSGEILIEPQKPIIEFGGIPVSPPAGGFTQATKQAEDAMAELMLAHVGKSKRIADLFCGSGTFALRLARIGRVHAVEAEDKALKALDFAARNTQGLKPVSVEKRDLFRRPLMTSELKNYDAVVFDPPRAGAEVQCKELARSTVKKIVAVSCNPLTLARDLAILTEGGYRVTRVTPVDQFLWSPHVEAVAVLEK | not soluble |
| MSTSKRPYKILLRKVESKEENKKDTNETKKKEEESKHYEDRHYRKNDIKHYEENEKTIKSKMHYNSRNRYYDKYSMSYSRYDEKLNKQHSSEKKKDVLVPLLEQASINIKKKKIIIRKLPPTLTEENFFDSFSNNIKDELDYYYFVNGSASKDSSNDIIYSRMYLSFKDDMKTDEFIRTQNGKFFYDLNGVKYKALVSYAPNQTLIKKNKPDSRNNTLESDEYFLKCCEEMNNPVQRVKKDIDYSELINVQTENGAILSPIVIELRSKKKK | not soluble |
| MSTSTVETGYGGRIRVTVARNDRDITSEVRTFLCNKENANKIIGLDTERSVVGGDSEYPPESKLVILELSDGQNCLIIPLPYVQGNKLPVSLTNFLNLPDFTFTGVGINKALKMLKSECGLTCKNAVDIGPSSPIYEDWDNDSLTEDQINLAAANAYLAFKVGNLIREAMY | soluble |
